From patent US20240270821A1, “GIP/GLP1/GCG TRI-RECEPTOR AGONISTS AND USES THEREOF” (priority 2023, published 2024)

T1: human GIP receptor (human) (UniProt P48546)
T1 sequence (looked up): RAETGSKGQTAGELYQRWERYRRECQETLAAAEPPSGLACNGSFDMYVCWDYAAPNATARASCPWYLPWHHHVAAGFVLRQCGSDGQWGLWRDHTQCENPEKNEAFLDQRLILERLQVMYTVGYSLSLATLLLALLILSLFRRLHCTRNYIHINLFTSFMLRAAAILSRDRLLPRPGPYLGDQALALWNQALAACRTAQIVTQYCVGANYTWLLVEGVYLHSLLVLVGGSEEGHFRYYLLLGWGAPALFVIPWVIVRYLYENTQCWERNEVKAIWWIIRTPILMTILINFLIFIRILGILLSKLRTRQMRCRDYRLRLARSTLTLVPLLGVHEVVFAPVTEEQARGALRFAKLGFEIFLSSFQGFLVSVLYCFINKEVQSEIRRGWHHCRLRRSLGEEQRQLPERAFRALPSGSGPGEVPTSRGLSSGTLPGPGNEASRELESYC


What was measured:
Test in all cases: cell-based or functional assay
hGLP-1R = hGLP-1R (Homo sapiens, UniProt P43220)
Sequence of hGLP-1R (P43220 24-463): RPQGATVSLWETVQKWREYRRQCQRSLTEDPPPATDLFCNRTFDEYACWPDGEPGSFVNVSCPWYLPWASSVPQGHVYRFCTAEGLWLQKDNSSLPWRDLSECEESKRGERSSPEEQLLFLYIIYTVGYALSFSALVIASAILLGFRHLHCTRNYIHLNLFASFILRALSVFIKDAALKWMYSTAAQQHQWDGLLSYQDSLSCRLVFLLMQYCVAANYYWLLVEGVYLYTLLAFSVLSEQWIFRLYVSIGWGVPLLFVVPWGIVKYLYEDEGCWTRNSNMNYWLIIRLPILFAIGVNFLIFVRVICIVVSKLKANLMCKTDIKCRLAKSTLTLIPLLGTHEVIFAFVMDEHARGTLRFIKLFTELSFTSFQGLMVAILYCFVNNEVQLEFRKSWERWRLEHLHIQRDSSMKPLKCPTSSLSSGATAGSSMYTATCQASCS

[1] = molecular target: human glucagon receptor (human) (UniProt P47871)
Sequence of human glucagon receptor (human) (P47871 26-477): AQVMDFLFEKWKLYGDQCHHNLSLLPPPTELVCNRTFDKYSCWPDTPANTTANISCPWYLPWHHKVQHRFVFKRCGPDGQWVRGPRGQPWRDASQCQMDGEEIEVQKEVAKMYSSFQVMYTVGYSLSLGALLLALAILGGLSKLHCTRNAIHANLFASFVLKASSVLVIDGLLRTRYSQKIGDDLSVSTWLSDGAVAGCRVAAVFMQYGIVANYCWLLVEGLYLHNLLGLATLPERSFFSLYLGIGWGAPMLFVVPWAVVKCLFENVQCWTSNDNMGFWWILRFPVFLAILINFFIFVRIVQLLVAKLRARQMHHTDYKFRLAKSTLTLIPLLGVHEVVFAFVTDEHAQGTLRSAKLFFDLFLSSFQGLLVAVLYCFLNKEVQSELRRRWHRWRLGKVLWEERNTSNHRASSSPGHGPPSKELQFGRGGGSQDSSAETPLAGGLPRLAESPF

[2] = molecular target: T1, human GIP receptor (human)

Binder	Relative cAMP EC50 (hGLP-1R) [nM]	cAMP Rel EC50 (1% HSA) (hGLP-1R) [nM]	Relative cAMP EC50 [1] [nM]	cAMP Rel EC50 (1% HSA) [1] [nM]	Relative cAMP EC50 [2] [nM]	cAMP Rel EC50 (1% HSA) [2] [nM]
YXQGTFTSDXSQXLDXKAQXAFIEYLIAXGPSSGEPPPSGSEE (non-natural residues; lipidated Lys; C-terminal amide; synthetic construct; SITE 2: note = 2-Aminoisobutyric Acid; SITE 10: note = 3-(4-Pyridyl)-L-alanine; SITE 13: note = alpha-methyl-leucine; SITE 16: note = L-ornithine; SITE 17: note = Lysine is chemically modified through conjugation of the epsilon-amino group of the Lysine side chain with D-Glutami) [Example 1101]	1.75	246	4.72	827	0.0592	6.31
YXQGTFTSDXSQXLDXKAQXAFIEYLIQXGPSSGEPPPSGSEE (not fully specified; non-natural residues, γGlu-C18 diacid acyl on K, C-terminal amide; synthetic construct; SITE 2: note = 2-Aminoisobutyric Acid; SITE 10: note = 3-(4-Pyridyl)-L-alanine; SITE 13: note = alpha-methyl-leucine; SITE 16: note = L-ornithine; SITE 17: note = Lysine is chemically modified through conjugation of the epsilon-amino group of the Lysine side chain with D-Glutami) [Example 1102]	2.18	295	4.37	516	0.0418	5.12
YXQGTFTSDXSQXLDKKAQXAFIEXLIEXGPSSGEPPPSGEEE (non-natural residues (Aib, 4Pal, Me4Pal, αMeL); lipidated Lys; C-amide; synthetic construct; SITE 2: note = 2-Aminoisobutyric Acid; SITE 10: note = 3-(4-Pyridyl)-L-alanine; SITE 13: note = alpha-methyl-leucine; SITE 17: note = Lysine is chemically modified through conjugation of the epsilon-amino group of the Lysine side chain with (gamma-Glu)2-CO-(CH2)16-CO2H; SITE 20:) [Example 1124]	10.1	304	6.97	400	0.187	12
YXQGTFTSDXSQXLDXKAQXAFIEXLIAXGPSSGEPPPSGSEE (not fully specified; non-natural residues; Lys acylated γGlu-C18 diacid; C-terminal amide; synthetic construct; SITE 2: note = 2-Aminoisobutyric Acid; SITE 10: note = 3-(4-Pyridyl)-L-alanine; SITE 13: note = alpha-methyl-leucine; SITE 16: note = L-ornithine; SITE 17: note = Lysine is chemically modified through conjugation of the epsilon-amino group of the Lysine side chain with D-Glutami) [Example 1105]	0.875	92.5	10.7	1260	0.0427	5.59
YXQGTFTSDXSQXLDXKAQXQFIEXLIAXGPSSGEPPPSGSEE (not fully specified; Aib, 4Pal, Orn, Me4Pal, αMeY; lipidated Lys; C-terminal amide; synthetic construct; SITE 2: note = 2-Aminoisobutyric Acid; SITE 10: note = 3-(4-Pyridyl)-L-alanine; SITE 13: note = alpha-methyl-leucine; SITE 16: note = L-ornithine; SITE 17: note = Lysine is chemically modified through conjugation of the epsilon-amino group of the Lysine side chain with D-Glutami) [Example 1106]	0.87	119	7.71	1030	0.0312	4.23
YXQGTFTSDXSQXLDXKAQXAFIEXLIEXGPSSGEPPPSGSEE (not fully specified; Aib, 4Pal, Orn, Me4Pal, αMeY; lipidated Lys; C-terminal amide; synthetic construct; SITE 2: note = 2-Aminoisobutyric Acid; SITE 10: note = 3-(4-Pyridyl)-L-alanine; SITE 13: note = alpha-methyl-leucine; SITE 16: note = L-ornithine; SITE 17: note = Lysine is chemically modified through conjugation of the epsilon-amino group of the Lysine side chain with D-Glutami) [Example 1103]	1.06	183	11.1	1350	0.0723	19.5
YXQGTFTSDXSQXLDXKAQXQFIEXLIEXGPSSGEPPPSGSEE (not fully specified; non-natural residues; Lys acylated C18 diacid via γGlu; C-term amide; synthetic construct; SITE 2: note = 2-Aminoisobutyric Acid; SITE 10: note = 3-(4-Pyridyl)-L-alanine; SITE 13: note = alpha-methyl-leucine; SITE 16: note = L-ornithine; SITE 17: note = Lysine is chemically modified through conjugation of the epsilon-amino group of the Lysine side chain with D-Glutami) [Example 1104]	1.7	272	11.1	1470	0.09	13.9
YXQGTFTSDXSQXLDXKAQXQFIEXLIAXGPSSGEPPPSGSEE (non-natural residues; lysine acylated AEEA-γGlu-C18 diacid; C-terminal amide; synthetic construct; SITE 2: note = 2-Aminoisobutyric Acid; SITE 10: note = 3-(4-Pyridyl)-L-alanine; SITE 13: note = alpha-methyl-leucine; SITE 16: note = L-ornithine; SITE 17: note = Lysine is chemically modified through conjugation of the epsilon-amino group of the Lysine side chain with (2-[2-(2-) [Example 1100]	0.514	77.2	5.28	577	0.0694	9.04
YXQGTFTSDXSQXLDKKAQXAFIEXLIEXGPSSGEPPPSGE (Aib, 4Pal, αMeL, Me4Pal; acylated Lys; C-terminal amide; synthetic construct; SITE 2: note = 2-Aminoisobutyric Acid; SITE 10: note = 3-(4-Pyridyl)-L-alanine; SITE 13: note = alpha-methyl-leucine; SITE 17: note = Lysine is chemically modified through conjugation of the epsilon-amino group of the Lysine side chain with (gamma-Glu)2-CO-(CH2)16-CO2H; SITE 20:) [Example 1123]	4.47	191	5.53	441	0.101	3.89

Further lines, results first:

Relative cAMP EC50 (hGLP-1R) [nM]	cAMP Rel EC50 (1% HSA) (hGLP-1R) [nM]	Relative cAMP EC50 [1] [nM]	cAMP Rel EC50 (1% HSA) [1] [nM]	Relative cAMP EC50 [2] [nM]	cAMP Rel EC50 (1% HSA) [2] [nM]	Binder
0.483	63.7	8.42	1140	0.0472	5.47	YXQGTFTSDXSQXLDXKAQXAFIQXLIEXGPSSGEPPPSGGGE (not fully specified; non-natural residues, C18 diacid acylation, C-terminal amide; synthetic construct; SITE 2: note = 2-Aminoisobutyric Acid; SITE 10: note = 3-(4-Pyridyl)-L-alanine; SITE 13: note = alpha-methyl-leucine; SITE 16: note = L-ornithine; SITE 17: note = Lysine is chemically modified through conjugation of the epsilon-amino group of the Lysine side chain with D-Glutami) [Example 1131]
0.486	52.8	9.88	869	0.0378	3.18	YXQGTFTSDXSQXLDXKAQXQFIQXLIAXGPSSGEPPPSGGGE (Aib, 4Pal, αMeL, Orn, Me4Pal, αMeY; acylated lysine; amide; synthetic construct; SITE 2: note = 2-Aminoisobutyric Acid; SITE 10: note = 3-(4-Pyridyl)-L-alanine; SITE 13: note = alpha-methyl-leucine; SITE 16: note = L-ornithine; SITE 17: note = Lysine is chemically modified through conjugation of the epsilon-amino group of the Lysine side chain with D-Glutami) [Example 1128]
0.501	56.6	6.11	796	0.048	4.16	YXQGTFTSDXSQXLDXKAQXQFIQXLIEXGPSSGEPPPSGGGE (non-natural residues; lysine acylated with C18 diacid; C-terminal amide; synthetic construct; SITE 2: note = 2-Aminoisobutyric Acid; SITE 10: note = 3-(4-Pyridyl)-L-alanine; SITE 13: note = alpha-methyl-leucine; SITE 16: note = L-ornithine; SITE 17: note = Lysine is chemically modified through conjugation of the epsilon-amino group of the Lysine side chain with D-Glutami) [Example 1129]
0.641	44.5	13.3	1240	0.0441	3.73	YXQGTFTSDXSQXLDXKAQXAFIQXLIAXGPSSGEPPPSGGGE (Lys acylated γGlu-C18 diacid; non-natural residues; C-amide; synthetic construct; SITE 2: note = 2-Aminoisobutyric Acid; SITE 10: note = 3-(4-Pyridyl)-L-alanine; SITE 13: note = alpha-methyl-leucine; SITE 16: note = L-ornithine; SITE 17: note = Lysine is chemically modified through conjugation of the epsilon-amino group of the Lysine side chain with D-Glutami) [Example 1130]
8.26	243	5.83	264	0.173	3.95	YXQGTFTSDXSQXLDKKAQXAFIEXLIEXGPSSGEPPPSGSEE (Aib, 4Pal, Me4Pal, αMeL; lipidated Lys; C-terminal amide; synthetic construct; SITE 2: note = 2-Aminoisobutyric Acid; SITE 10: note = 3-(4-Pyridyl)-L-alanine; SITE 13: note = alpha-methyl-leucine; SITE 17: note = Lysine is chemically modified through conjugation of the epsilon-amino group of the Lysine side chain with (gamma-Glu)2-CO-(CH2)16-CO2H; SITE 20:) [Example 1125]
